Data from US20220119522A1 (DENALI THERAPEUTICS, published 2022).
No end group written: not given here.

T1: mouse TREM2 full length stalk region peptide (aa 131-169) (mouse, UniProt Q99NH8 131-169, biotinylated (site not stated))
T1 peptide (looked up): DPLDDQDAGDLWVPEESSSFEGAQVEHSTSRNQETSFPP

T2: human TREM2 truncated stalk peptide (aa 149-163) (human, also: biotinylated (site not given here))
T2 construct: also called Human TREM2 peptide (aa 149-163); truncated stalk peptide containing the ADAM10/17 cleavage site
T2 peptide: SFEDAHVEHSISRSL

T3: human TREM2 full length stalk region peptide (aa 129-172) (human, biotinylated (site not stated))
T3 construct: also called Human TREM2 peptide (aa 129-172); full-length TREM2 stalk peptide
T3 peptide: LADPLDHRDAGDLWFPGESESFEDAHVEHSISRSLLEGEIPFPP

B1: CL0020215 (antibody, V domains shown)
VH: QVQLQQPGAELVKPGASVKMSCKASGYTFTNYWIMWVKQRPGQGLEWIGDIYPSSGSTNYNEKFKNRATLTVDTSSNTAYMQLSSLTSEDSAVYFCSREGYGISAWGQGTTLTVSS
VL: QIVLTQSPAIMSASPGEKVTITCSASSSVSYMHWFQQKPGTSPKLWIYSTSNLASGVPARFSGSGSGTSCSLTISRMEAEDAATYYCQQRSSFPLTFGAGTKLELK
notes: also called Clone CL0020215
B2: CL0020111 (antibody, V domains shown)
VH: QVQLQQPGADLVKPGASVKMSCKASGYTFTNYWITWVQQRPGQGLEWIGDIYPGSGNTNYNEKFRSKATLTVDTSSNTAYMQLSSLTSEDSAVYYCSREGYGISAWGQGTTLTVSS
VL: QIVLTQSPAFMSASPGEKVTITCRASSSVSYMHWFQQKPGTSPKLWIFSTSNLASGVPARFSGSGSGTSHSLTISRMEAEDAATYYCQQRSGYPLTFGAGTKLELK
notes: also called Clone CL0020111
B3: CL0020186 (antibody, V domains shown)
VH: EVQLVESGGGLVQPGRSLKLSCPASGFTFSYYGMAWVRQAPTKGLEWVASISTGGGNTYYRDSVKGRFTISRDNAKNTLYLQMDSLRSEDTATYYCARGDIGTAYWFTYWGQGTLVTVSS
VL: NIQLTQSPSLLSASVGDRVTLSCKGSQNINNYLAWYQQKLGEAPKLLIYKTNSLLTGIPSRFSGSGSGTDYTLTISSLHSEDLATYYCYQYNNGWTFGGGTKLELK
notes: also called Clone CL0020186
B4: CL0020124 (antibody, V domains shown)
VH: EVQLQQSGPVLVKPGASVKMSCKPSGYTFTDYYMNWVKQSHGKSLEWIGSINPYTGGSSYNQKFRGKATLTVDKSSSTAYMELNSLTSEDSAVYYCARGSYYSNLGFAYWGQGTLVTVSA
VL: DVQLTQSPSYLTASPGETITINCRASKSISKYLAWYQEKPGKTNKLLISSGSTLQSGIPSRFSGSGSGTDFTLTISSLEPEDFAMYYCQQYSEYPFTFGSGTKLEIK
notes: also called Clone CL0020124
B5: CL0020164 (antibody, V domains shown)
VH: EVKLLESGGGLVQPGGSLRLSCAASGFTFTDFYMSWIRQPPGKAPEWLGVIRNKANGFTTEYNTSVKGRFTISRDYTQNILHLQTNTLRAEDTAIYYCARLTYGFDYWGQGVMVTVSS
VL: DIVMTQGALPNPVPSGESASITCQSSKSLLHSNGKTYLNWYLQRPGQSPQFLIYWMSTRASGVSDRFSGSGSGTDFTLKISSVEAEDVGVYYCQQFLELPFTFGSGTKLEIK
notes: also called Clone CL0020164
B6: CL0020173 (antibody, V domains shown)
VH: EVKLLESGGGLVQPGSSMRLSCAASGFTFTDFYMNWIRQPAGRAPEWLGFFRNIVDGYTTEYNPSVKGRFTISRDNTQNMLYLQMNTLRAEDTATYYCARSGYSSYIYGGTFAYWGQGTLVTVSS
VL: ETVMTQSPTSMSTSIGERVTLNCKASQSVGIHVDWYQQTPGQSPKLLIYGASNRHTGVPDRFTGSGFGRDFTLTISNVEAEDLAVYYCLQYGSIPWTFGGGTKLELK
notes: also called Clone CL0020173
B7: CL0020109 (antibody, V domains shown)
VH: EVQLQQSGPVLVKPGASLKMSCRASGYTFTDYYVHWVKQSHGKSLEWIGLINPYTGTTSYNQRFKGKATLTVDKSSSTAYMEVNSLTSEDSAVYYCARSRVYYGSSLFAFWGQGTLVTVSA
VL: DIVMTQSPSSLSVSAGEKVTMSCKSSQSLLNSGNQKNYLAWYQQKPGQPPKLLIYGASTRESGVPDRFTGSGSGTDFTLTISSVQAEDLAVYYCQNDHSYPYTFGGGTKLEIK
notes: also called Clone CL0020109

Assays:
Assay in all cases: ELISA on biotinylated peptide captured by streptavidin; A450 normalised to isotype control
[1] = target: T1, mouse TREM2 full length stalk region …
Protocol: (§1) TREM2 antibodies were evaluated for binding to human and mouse TREM2 stalk region peptides. […] Antibody binding to TREM2 stalk peptides was detected using standard sandwich ELISA. Briefly, a 96-well half-area ELISA plate was coated with streptavidin overnight at 4° C. The following day, biotinylated TREM2 stalk peptides diluted in 1% BSA/PBS were added to the plate and incubated for 1 hour. Antibodies diluted in 1% BSA/PBS were then added and incubated for 1 hour. Antibodies bound to peptide were detected with anti-human kappa-HRP secondary antibody (Bethyl Laboratories, Inc.) diluted in 1% BSA/PBS. Plates were assayed by reaction with a detection reagent (One-step TMB Ultra, Thermo) and measurement of absorbance at 450 nm (A450) by standard spectrophotometry instrumentation (BioTek®). Data are shown as normalized values (fold over background where background=isotype control).

[2] = target: T2, human TREM2 truncated stalk peptide (aa …)
Protocol: as §1

[3] = target: T3, human TREM2 full length stalk region …
Protocol: as §1

Binder	fold over background (A450) [1] [fold]	fold over background (A450) [2] [fold]	fold over background (A450) [3] [fold]
B1	1.1	1.1	1.2
B2	1.1	1.6	1.3
B3	7	1.3	4.9
B4	1.6	1.5	–
B5	51	1.4	50
B6	1.2	1.2	1.6
B7	1.7	1.5	1.7
